Test results published in patent US20230210943A1 (PEMI31 THERAPEUTICS, published 2023).

Tests used:
[1] = target: T1, scavenger receptor SR-AI pulled down from macrophage membrane extracts or lysates (UniProt P21757 1-451); experiment: plate binding assay on SR-AI pulled down from macrophage membrane extracts
T1 construct: also called SR-A1
T1 sequence (looked up): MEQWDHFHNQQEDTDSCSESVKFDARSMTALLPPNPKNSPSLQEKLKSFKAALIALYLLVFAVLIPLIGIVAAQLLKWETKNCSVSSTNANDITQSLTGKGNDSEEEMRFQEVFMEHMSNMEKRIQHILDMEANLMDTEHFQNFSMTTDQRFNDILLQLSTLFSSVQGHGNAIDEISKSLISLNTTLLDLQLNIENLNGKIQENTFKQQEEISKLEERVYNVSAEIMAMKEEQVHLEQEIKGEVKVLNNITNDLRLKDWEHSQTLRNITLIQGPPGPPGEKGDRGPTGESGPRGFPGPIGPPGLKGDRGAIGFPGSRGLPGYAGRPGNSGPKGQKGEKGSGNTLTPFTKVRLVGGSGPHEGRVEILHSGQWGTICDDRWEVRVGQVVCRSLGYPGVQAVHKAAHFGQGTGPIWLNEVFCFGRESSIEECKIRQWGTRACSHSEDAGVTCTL

[2] = target: scavenger receptor CD-36 pulled down from macrophage membrane extracts or lysates (UniProt P16671 2-472); experiment: plate binding assay on CD-36 pulled down from macrophage membrane extracts
Sequence of scavenger receptor CD-36 pulled down from macrophage membrane extracts or lysates (P16671 2-472 limits assumed): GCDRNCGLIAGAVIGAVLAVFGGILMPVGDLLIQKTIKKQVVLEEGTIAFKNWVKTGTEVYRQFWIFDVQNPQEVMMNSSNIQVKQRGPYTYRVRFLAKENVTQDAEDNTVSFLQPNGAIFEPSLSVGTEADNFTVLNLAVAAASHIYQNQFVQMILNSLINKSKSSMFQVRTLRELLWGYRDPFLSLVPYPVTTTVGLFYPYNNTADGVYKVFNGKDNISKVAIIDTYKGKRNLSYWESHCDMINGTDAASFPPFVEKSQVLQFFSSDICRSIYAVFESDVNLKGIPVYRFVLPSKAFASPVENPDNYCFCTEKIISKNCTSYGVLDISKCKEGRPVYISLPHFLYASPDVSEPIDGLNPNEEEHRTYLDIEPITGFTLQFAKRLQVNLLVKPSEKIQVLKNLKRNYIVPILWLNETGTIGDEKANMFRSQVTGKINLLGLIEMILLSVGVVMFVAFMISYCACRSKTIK

binding result [1]: no binding
binding result [2]: no binding
B1: HIS-tagged HSP27 polypeptide fragment rC1 (other)
chain: MHHHHHHHHDDDDKGGDRWRVSLDVNHFAPDELTVKTKDGVVEITGKHEERQDEHGYISRCFTRKYTLPPGVDPTQVSSSLSPEGTLTVEAPMPKLSTQSNEITIPVTFESRAQLGGPEAAKSDETAAK
notes: also called HSP27 rC1; HSP27 fragment rC1
